Test [1] has as its target canine PD-1 (canine). Nature of the test: ELISA, affinity for canine PD-1 (Table 2). Background: An ELISA detects its analyte on a solid surface through an enzyme-linked reagent.
Test [2] deals with canine PD-1 (canine). In words: ELISA on plate-bound tagged canine PD-1, Kd by the Bobrovnik method.
For test [3], the target named is canine PD-1 (canine). In words: competition ELISA, blockade of canine PD-1/PD-L1 binding; competitor canine PD-L1.
Test [4] deals with canine PD-1 (canine). Nature of the test: competition ELISA, inhibition of canine PD-1 binding to canine PD-L1; competitor canine PD-L1 (Table 2).
For test [5], the target named is canine PD-1 (canine). In words: ELISA; footnote: predicted affinity, not quantitatively measured.

The text below walks through data of patent publication US20210047412A1.

B1: NAN10 (4B4) (VHH)
VHH: QVQLQASGGGLVQGGESLRLSCAASGRTVAEYTIGWYRQAPGKEREFVAGPSWHARGTSYLDSVKGRFTISRDNTKDTVYLQMNTLKPEDTAVYYCNADVNTDYSEYVEYWGQGTQVG
B1: the Kd with canine PD-1 (canine) [1] and with canine PD-1 (canine) [2] was 2.3 nM in each case. The half-maximal inhibitory concentration (IC50) with canine PD-1 (canine) [3] and in the test with canine PD-1 (canine) [4] was 5.04 nM in each case.

B2: NAN27 (VHH)
VHH: QPQAFGGGLVQPGGSLRLSCVASGSTDSIYAMGWYRQAPGKQRELVATITSADSTNYADSVKGRFTISRDNAKNTVVLQMNSLKPEDTAVYYCNAGSLAGYDYWGQGTQVG
For the molecule B2, the dissociation constant Kd with canine PD-1 (canine) [5] is more than 10 nM.

B3: NAN7/8 (5A5) (VHH)
VHH: QVQLQASGGGLVEPGGSLRLSCAASGAIFRIAAMGWYRQAPGKERELVATITRGGSTNYADSVKGRFTISRDNAKNTAYLQMDSLKAEDTGVYYCNAGLWATTSANYWGQGTQVG
Consider B3, for which the dissociation constant Kd in the test with canine PD-1 (canine) [1] and in the test with canine PD-1 (canine) [2] was 5.01 nM throughout. For the same molecule, the concentration for half-maximal inhibition (IC50) with canine PD-1 (canine) [3] and in the test with canine PD-1 (canine) [4] was 6.83 nM throughout.

B4: NAN13/14 (VHH)
VHH: QVQLQASGGGLAQPGGSLRLSCAASGFTFSSYAMSWARQAPGKGLEWVSGIYSDGSGSYYADSVKGRFTISRDNAKNTLYLQMNSLKPEDTALYYCAKGSWSRGIKETDYWGQGTQVG
With B4, in the test with canine PD-1 (canine) [5], the dissociation constant (Kd) is more than 10 nM.

B5: NAN20 (VHH)
VHH: QVQLVQSGGEVKKPGASVKVSCKASGYTFTNYGITWARQAPGKGLEWVGGIYSDGSEPYYADSMKGRFTISRDNVKSTLYLQMNDLKPEDTALYFCAKGRGDFLKSAWRENRRYDSWGQGTQVG
Consider B5, for which the Kd with canine PD-1 (canine) [5] is more than 10 nM.

B6: NAN15 (4B2) (VHH)
VHH: QVQLQASGGGLVQPGEHLLLSCAASGFAFGIYTMGWYRQAPGKEREKVASISRTSDSWNYADSVKGRFTISRENAKNTLYLQMNSLKPEDTALYFCAKSRSAWNTDDIEYWGQGTQVG
For the molecule B6, the Kd with canine PD-1 (canine) [1] and with canine PD-1 (canine) [2] was 2.51 nM throughout. Besides, the IC50 with canine PD-1 (canine) [3] and in the test with canine PD-1 (canine) [4] was 5 nM throughout.

B7: NAN4 (5A1) (VHH)
VHH: QVQLQASGGGLVQPGGSLTLSCAASGSIDSILAMGWYRQGPGKQREFVASISWSGDITYYADSAKGRFTISRDNAKNTVYLQMNSLKPEDTAVYYCNAGPDMQISGPTDDYDYWGQGTQVG
For the molecule B7, the dissociation constant Kd with canine PD-1 (canine) [1] and in the test with canine PD-1 (canine) [2] was 7 nM throughout. In addition, the IC50 in the test with canine PD-1 (canine) [3] and with canine PD-1 (canine) [4] was 8.25 nM in each case.

B8: NAN6 (VHH)
VHH: QVQLQASGGGLVQPGGSLTLSCAASGSIDSILAMGWYRQGPGKQRELVATITSDGGSTNYAEYVKGRFTISRDDANNTACLQMDNLKPDDTAVYYCNAKGRRLSYGYWGQGTQVG
For the molecule B8, the Kd with canine PD-1 (canine) [5] was more than 10 nM.

B9: NAN22 (VHH)
VHH: QVQLQASGGGLVQPGGSLRLSCAASGSIFGLYAMGWYRQAPGKQRDLVAAIASGGSTNYADSVKGRFTISRDNAKNTVYLQMNSLKPEDTADYYCNVAGDVTAQNRCKHLEVWGQGTQVG
In the case of B9, the Kd with canine PD-1 (canine) [5] was more than 10 nM.

B10: NAN9 (VHH)
VHH: QVQLQASGGGLVQPGGSLRLSCATSGFTLDNLAIGWLRQAPGKEREGVSCISGSVGSTYYVDSVEGRFTISKDNAKNTVALQMDRLNPEDTAVYYCSAVGRERTHLPNWQYWGQGTQVG
As to B10, the Kd with canine PD-1 (canine) [5] was more than 10 nM.

A word on the Kd: it is the free concentration of one partner at which half of the binding sites on the other are occupied at equilibrium, for simple one-to-one binding. A word on the IC50: it is the point on the concentration scale where inhibition reaches its midpoint.
